Experimental data reported in patent publication US20150344570A1 (published 2015).

B1: GpH7-B3 variant E333_01G/GpL16-k0 (antibody, human IgG1, kappa)
heavy: not shown
light: DIVMTQSPLSLPVTPGEPASISCQASESLVHSNRNTYLHWYLQKPGQSPQLLIYKVSNRFSGVPDRFSGSGSGTDFTLKISRVEAEDVGVYYCSQNTHVPPTFGQGTKVEIERTVAAPSVFIFPPSDEQLKSGTASVVCLLNNFYPREAKVQWKVDNALQSGNSQESVTEQDSKDSTYSLSSTLTLSKADYEKHKVYACEVTHQGLSSPVTKSFNRGEC
notes: homodimerized IgG1, mutation in both H chains; also called Ho Ab
B2: GpH7-A5/GpH7-B3 variant P271_02A/GpL16-k0 (antibody, human IgG1, kappa)
heavy 1: not shown
heavy 2: not shown
light: B1 light
notes: heterodimerized IgG1, mutation in one H chain; also called He Ab
B3: GpH7-B3 variant P271_12R/GpL16-k0 (antibody, human IgG1, kappa)
heavy: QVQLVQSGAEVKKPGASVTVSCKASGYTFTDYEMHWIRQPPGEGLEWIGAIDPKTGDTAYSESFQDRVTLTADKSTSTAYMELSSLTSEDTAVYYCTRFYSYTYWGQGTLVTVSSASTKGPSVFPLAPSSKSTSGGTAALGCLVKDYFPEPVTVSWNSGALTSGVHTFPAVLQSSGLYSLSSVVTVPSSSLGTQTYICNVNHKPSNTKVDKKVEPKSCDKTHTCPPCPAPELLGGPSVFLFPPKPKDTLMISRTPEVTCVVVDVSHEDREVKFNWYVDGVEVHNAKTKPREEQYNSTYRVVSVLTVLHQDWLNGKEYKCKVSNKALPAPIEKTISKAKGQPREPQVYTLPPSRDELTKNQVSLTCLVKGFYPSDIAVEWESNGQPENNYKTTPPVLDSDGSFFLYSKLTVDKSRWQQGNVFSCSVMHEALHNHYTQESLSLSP
light: B1 light
notes: as for B1
B4: GpH7-B3 variant S337_03V/GpL16-k0 (antibody, human IgG1, kappa)
heavy: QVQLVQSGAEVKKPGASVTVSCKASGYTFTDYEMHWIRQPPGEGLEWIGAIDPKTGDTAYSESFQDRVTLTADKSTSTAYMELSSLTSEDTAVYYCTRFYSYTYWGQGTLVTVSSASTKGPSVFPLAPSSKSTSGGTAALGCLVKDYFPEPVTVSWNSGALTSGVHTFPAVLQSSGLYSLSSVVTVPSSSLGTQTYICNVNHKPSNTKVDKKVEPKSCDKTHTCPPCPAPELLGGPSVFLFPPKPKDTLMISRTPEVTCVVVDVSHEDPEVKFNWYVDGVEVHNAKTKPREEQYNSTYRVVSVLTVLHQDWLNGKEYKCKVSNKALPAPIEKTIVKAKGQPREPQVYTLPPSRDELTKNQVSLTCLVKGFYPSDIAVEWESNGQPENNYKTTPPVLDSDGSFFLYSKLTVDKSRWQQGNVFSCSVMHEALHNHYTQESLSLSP
light: B1 light
notes: as for B1
B5: GpH7-B3 variant I336_04F/GpL16-k0 (antibody, human IgG1, kappa)
heavy: not shown
light: B1 light
notes: as for B1
B6: GpH7-A5/GpH7-B3 variant A330_14T/GpL16-k0 (antibody, human IgG1, kappa)
heavy 1: not shown
heavy 2: not shown
light: B1 light
notes: as for B2
B7: GpH7-A5/GpH7-B3 variant A327_09D/GpL16-k0 (antibody, human IgG1, kappa)
heavy 1: not shown
heavy 2: not shown
light: B1 light
notes: as for B2
B8: GpH7-A5/GpH7-B3 variant A330_08L/GpL16-k0 (antibody, human IgG1, kappa)
heavy 1: not shown
heavy 2: not shown
light: B1 light
notes: as for B2
B9: GpH7-B3 variant S324_20W/GpL16-k0 (antibody, human IgG1, kappa)
heavy: not shown
light: B1 light
notes: as for B1
B10: GpH7-B3 variant S298_14T/GpL16-k0 (antibody, human IgG1, kappa)
heavy: not shown
light: B1 light
notes: as for B1
B11: GpH7-B3 variant S298_19Q/GpL16-k0 (antibody, human IgG1, kappa)
heavy: not shown
light: B1 light
notes: as for B1
B12: GpH7-B3 variant S239_01G/GpL16-k0 (antibody, human IgG1, kappa)
heavy: not shown
light: B1 light
notes: as for B1
B13: GpH7-B3 variant Q295_18N/GpL16-k0 (antibody, human IgG1, kappa)
heavy: not shown
light: B1 light
notes: as for B1
B14: GpH7-B3 variant Q295_04F/GpL16-k0 (antibody, human IgG1, kappa)
heavy: not shown
light: B1 light
notes: as for B1
B15: GpH7-B3 variant S267_02A/GpL16-k0 (antibody, human IgG1, kappa)
heavy: not shown
light: B1 light
notes: as for B1
B16: GpH7-B3 variant S267_03V/GpL16-k0 (antibody, human IgG1, kappa)
heavy: not shown
light: B1 light
notes: as for B1
B17: GpH7-B3 variant S267_01G/GpL16-k0 (antibody, human IgG1, kappa)
heavy: not shown
light: B1 light
notes: as for B1
B18: GpH7-B3 variant S324_19Q/GpL16-k0 (antibody, human IgG1, kappa)
heavy: not shown
light: B1 light
notes: as for B1
B19: GpH7-B3 variant P271_13S/GpL16-k0 (antibody, human IgG1, kappa)
heavy: not shown
light: B1 light
notes: as for B1
B20: GpH7-B3 variant E333_13S/GpL16-k0 (antibody, human IgG1, kappa)
heavy: not shown
light: B1 light
notes: as for B1
B21: GpH7-B3 variant G236_20W/GpL16-k0 (antibody, human IgG1, kappa)
heavy: not shown
light: B1 light
notes: as for B1
B22: GpH7-B3 variant K326_14T/GpL16-k0 (antibody, human IgG1, kappa)
heavy: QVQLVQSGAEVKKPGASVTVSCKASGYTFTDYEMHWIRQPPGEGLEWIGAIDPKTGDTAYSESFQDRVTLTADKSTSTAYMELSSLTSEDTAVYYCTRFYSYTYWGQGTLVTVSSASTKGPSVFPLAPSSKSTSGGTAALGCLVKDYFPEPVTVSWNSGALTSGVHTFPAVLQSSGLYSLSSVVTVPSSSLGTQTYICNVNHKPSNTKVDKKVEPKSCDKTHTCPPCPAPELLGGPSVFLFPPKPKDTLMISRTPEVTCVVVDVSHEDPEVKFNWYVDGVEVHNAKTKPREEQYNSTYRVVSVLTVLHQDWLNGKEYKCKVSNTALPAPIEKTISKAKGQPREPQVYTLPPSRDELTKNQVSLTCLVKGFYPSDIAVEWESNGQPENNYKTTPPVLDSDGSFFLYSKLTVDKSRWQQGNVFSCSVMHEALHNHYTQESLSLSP
light: B1 light
notes: as for B1
B23: GpH7-B3 variant Q295_03V/GpL16-k0 (antibody, human IgG1, kappa)
heavy: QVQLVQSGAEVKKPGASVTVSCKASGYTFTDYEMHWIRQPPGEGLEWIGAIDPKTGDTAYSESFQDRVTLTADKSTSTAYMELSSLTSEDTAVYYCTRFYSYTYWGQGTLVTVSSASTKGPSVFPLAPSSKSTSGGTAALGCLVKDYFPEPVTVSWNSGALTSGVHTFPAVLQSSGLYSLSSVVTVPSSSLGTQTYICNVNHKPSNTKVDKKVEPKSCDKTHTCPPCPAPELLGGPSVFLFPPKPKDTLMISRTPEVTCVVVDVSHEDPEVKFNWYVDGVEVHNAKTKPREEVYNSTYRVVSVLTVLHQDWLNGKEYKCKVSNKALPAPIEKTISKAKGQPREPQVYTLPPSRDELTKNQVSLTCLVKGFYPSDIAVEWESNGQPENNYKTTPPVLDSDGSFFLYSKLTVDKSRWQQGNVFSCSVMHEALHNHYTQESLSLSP
light: B1 light
notes: as for B1
B24: GpH7-B3 variant S324_02A/GpL16-k0 (antibody, human IgG1, kappa)
heavy: not shown
light: B1 light
notes: as for B1
B25: GpH7-B3 variant P271_04F/GpL16-k0 (antibody, human IgG1, kappa)
heavy: not shown
light: B1 light
notes: as for B1
B26: GpH7-B3 variant S324_03V/GpL16-k0 (antibody, human IgG1, kappa)
heavy: not shown
light: B1 light
notes: as for B1
B27: GpH7-B3 variant S324_08L/GpL16-k0 (antibody, human IgG1, kappa)
heavy: not shown
light: B1 light
notes: as for B1
B28: GpH7-B3 variant P271_07I/GpL16-k0 (antibody, human IgG1, kappa)
heavy: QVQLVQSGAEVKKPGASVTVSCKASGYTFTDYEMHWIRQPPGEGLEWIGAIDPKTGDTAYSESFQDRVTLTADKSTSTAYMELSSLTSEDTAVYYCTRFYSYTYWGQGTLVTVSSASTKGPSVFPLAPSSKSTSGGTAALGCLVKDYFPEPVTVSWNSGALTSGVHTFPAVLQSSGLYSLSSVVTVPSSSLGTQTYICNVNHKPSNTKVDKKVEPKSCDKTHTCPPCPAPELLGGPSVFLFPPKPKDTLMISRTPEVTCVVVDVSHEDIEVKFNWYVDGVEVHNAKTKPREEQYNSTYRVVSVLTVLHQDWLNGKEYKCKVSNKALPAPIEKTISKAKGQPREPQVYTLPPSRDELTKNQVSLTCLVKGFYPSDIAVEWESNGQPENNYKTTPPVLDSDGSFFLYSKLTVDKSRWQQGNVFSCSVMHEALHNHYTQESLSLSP
light: B1 light
notes: as for B1
B29: GpH7-B3 variant P271_20W/GpL16-k0 (antibody, human IgG1, kappa)
heavy: not shown
light: B1 light
notes: as for B1
B30: GpH7-B3 variant P271_03V/GpL16-k0 (antibody, human IgG1, kappa)
heavy: not shown
light: B1 light
notes: as for B1
B31: GpH7-B3 variant I336_10E/GpL16-k0 (antibody, human IgG1, kappa)
heavy: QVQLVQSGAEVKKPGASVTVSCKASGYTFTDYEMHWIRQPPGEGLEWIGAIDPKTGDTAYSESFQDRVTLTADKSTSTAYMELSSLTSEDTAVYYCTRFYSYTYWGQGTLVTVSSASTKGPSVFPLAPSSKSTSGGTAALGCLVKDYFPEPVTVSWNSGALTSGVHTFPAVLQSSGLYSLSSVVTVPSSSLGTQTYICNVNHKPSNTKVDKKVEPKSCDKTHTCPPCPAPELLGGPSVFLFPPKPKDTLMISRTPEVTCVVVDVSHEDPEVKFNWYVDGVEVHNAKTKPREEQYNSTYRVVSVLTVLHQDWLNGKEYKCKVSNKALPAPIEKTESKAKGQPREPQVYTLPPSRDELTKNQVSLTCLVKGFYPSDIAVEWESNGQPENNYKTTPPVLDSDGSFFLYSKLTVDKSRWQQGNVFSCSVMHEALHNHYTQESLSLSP
light: B1 light
notes: as for B1
B32: GpH7-B3 variant S298_15Y/GpL16-k0 (antibody, human IgG1, kappa)
heavy: not shown
light: B1 light
notes: as for B1
B33: GpH7-B3 variant S298_10E/GpL16-k0 (antibody, human IgG1, kappa)
heavy: not shown
light: B1 light
notes: as for B1
B34: GpH7-B3 variant S298_07I/GpL16-k0 (antibody, human IgG1, kappa)
heavy: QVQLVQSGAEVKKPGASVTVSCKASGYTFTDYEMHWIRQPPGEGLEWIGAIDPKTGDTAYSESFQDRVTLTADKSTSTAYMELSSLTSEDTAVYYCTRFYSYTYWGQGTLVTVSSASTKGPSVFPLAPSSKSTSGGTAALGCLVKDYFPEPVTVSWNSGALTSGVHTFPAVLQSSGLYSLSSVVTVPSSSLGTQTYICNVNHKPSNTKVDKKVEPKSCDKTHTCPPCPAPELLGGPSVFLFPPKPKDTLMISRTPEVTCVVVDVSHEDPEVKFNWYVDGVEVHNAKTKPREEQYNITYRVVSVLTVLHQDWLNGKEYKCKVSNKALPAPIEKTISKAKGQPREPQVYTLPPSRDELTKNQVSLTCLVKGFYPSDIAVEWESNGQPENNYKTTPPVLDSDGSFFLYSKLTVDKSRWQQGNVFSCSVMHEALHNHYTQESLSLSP
light: B1 light
notes: as for B1
B35: GpH7-B3 variant S298_16H/GpL16-k0 (antibody, human IgG1, kappa)
heavy: not shown
light: B1 light
notes: as for B1
B36: GpH7-B3 variant S324_14T/GpL16-k0 (antibody, human IgG1, kappa)
heavy: not shown
light: B1 light
notes: as for B1
B37: GpH7-B3 variant Q295_05P/GpL16-k0 (antibody, human IgG1, kappa)
heavy: not shown
light: B1 light
notes: as for B1
B38: GpH7-B3 variant S298_03V/GpL16-k0 (antibody, human IgG1, kappa)
heavy: not shown
light: B1 light
notes: as for B1
B39: GpH7-B3 variant K326_15Y/GpL16-k0 (antibody, human IgG1, kappa)
heavy: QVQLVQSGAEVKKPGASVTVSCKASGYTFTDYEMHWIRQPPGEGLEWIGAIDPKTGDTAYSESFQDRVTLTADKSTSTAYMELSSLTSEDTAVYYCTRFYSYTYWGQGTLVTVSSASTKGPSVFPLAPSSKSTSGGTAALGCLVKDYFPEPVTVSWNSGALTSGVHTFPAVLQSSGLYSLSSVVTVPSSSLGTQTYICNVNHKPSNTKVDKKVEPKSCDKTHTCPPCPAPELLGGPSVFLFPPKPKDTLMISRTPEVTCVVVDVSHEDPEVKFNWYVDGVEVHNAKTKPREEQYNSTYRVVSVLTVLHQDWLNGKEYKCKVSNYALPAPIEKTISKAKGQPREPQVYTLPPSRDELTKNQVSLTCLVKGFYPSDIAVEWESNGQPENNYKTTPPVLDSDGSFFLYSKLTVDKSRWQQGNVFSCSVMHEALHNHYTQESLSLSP
light: B1 light
notes: as for B1
B40: GpH7-B3 variant Q295_14T/GpL16-k0 (antibody, human IgG1, kappa)
heavy: not shown
light: B1 light
notes: as for B1
B41: GpH7-B3 variant I336_06M/GpL16-k0 (antibody, human IgG1, kappa)
heavy: not shown
light: B1 light
notes: as for B1
B42: GpH7-B3 variant S239_09D/GpL16-k0 (antibody, human IgG1, kappa)
heavy: not shown
light: B1 light
notes: as for B1
B43: GpH7-A5/GpH7-B3 variant A330_09D/GpL16-k0 (antibody, human IgG1, kappa)
heavy 1: not shown
heavy 2: not shown
light: B1 light
notes: as for B2
B44: GpH7-B3 variant I336_18N/GpL16-k0 (antibody, human IgG1, kappa)
heavy: not shown
light: B1 light
notes: as for B1
B45: GpH7-B3 variant I336_02A/GpL16-k0 (antibody, human IgG1, kappa)
heavy: not shown
light: B1 light
notes: as for B1
B46: GpH7-B3 variant S337_01G/GpL16-k0 (antibody, human IgG1, kappa)
heavy: not shown
light: B1 light
notes: as for B1
B47: GpH7-B3 variant S267_09D/GpL16-k0 (antibody, human IgG1, kappa)
heavy: not shown
light: B1 light
notes: as for B1
B48: GpH7-B3 variant K326_16H/GpL16-k0 (antibody, human IgG1, kappa)
heavy: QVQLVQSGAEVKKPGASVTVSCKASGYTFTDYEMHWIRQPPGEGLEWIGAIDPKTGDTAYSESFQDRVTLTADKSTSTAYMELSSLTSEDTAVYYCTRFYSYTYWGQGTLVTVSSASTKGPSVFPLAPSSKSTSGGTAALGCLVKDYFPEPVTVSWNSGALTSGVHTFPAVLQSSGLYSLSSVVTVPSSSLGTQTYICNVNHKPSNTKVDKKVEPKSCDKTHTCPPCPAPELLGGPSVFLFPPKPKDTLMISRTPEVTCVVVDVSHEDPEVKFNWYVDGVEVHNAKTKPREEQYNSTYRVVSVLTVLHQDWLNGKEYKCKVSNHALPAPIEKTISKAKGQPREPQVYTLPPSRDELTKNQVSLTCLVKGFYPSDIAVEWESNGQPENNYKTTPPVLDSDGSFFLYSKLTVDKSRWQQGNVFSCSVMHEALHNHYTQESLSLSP
light: B1 light
notes: as for B1
B49: GpH7-B3 variant I336_01G/GpL16-k0 (antibody, human IgG1, kappa)
heavy: not shown
light: B1 light
notes: as for B1
B50: GpH7-B3 variant S298_18N/GpL16-k0 (antibody, human IgG1, kappa)
heavy: not shown
light: B1 light
notes: as for B1
B51: GpH7-B3 variant I336_03V/GpL16-k0 (antibody, human IgG1, kappa)
heavy: not shown
light: B1 light
notes: as for B1
B52: GpH7-B3 variant K334_10E/GpL16-k0 (antibody, human IgG1, kappa)
heavy: not shown
light: B1 light
notes: as for B1
B53: GpH7-B3 variant S337_02A/GpL16-k0 (antibody, human IgG1, kappa)
heavy: not shown
light: B1 light
notes: as for B1
B54: GpH7-B3 variant Q295_07I/GpL16-k0 (antibody, human IgG1, kappa)
heavy: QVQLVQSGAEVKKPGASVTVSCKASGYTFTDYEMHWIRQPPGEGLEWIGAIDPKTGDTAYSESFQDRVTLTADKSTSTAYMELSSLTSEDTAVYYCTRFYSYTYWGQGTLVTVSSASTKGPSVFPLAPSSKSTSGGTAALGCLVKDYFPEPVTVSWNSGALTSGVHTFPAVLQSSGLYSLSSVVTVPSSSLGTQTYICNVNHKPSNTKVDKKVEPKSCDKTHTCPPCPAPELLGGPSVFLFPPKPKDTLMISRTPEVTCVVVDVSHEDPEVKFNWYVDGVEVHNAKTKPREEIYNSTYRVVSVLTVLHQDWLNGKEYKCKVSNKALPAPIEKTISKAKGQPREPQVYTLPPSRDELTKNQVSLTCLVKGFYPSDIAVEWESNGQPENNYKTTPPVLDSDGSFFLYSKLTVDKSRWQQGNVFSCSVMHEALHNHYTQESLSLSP
light: B1 light
notes: as for B1
B55: GpH7-B3 variant P271_11K/GpL16-k0 (antibody, human IgG1, kappa)
heavy: not shown
light: B1 light
notes: as for B1
B56: GpH7-B3 variant P271_06M/GpL16-k0 (antibody, human IgG1, kappa)
heavy: not shown
light: B1 light
notes: as for B1
B57: GpH7-B3 variant Q295_13S/GpL16-k0 (antibody, human IgG1, kappa)
heavy: not shown
light: B1 light
notes: as for B1
B58: GpH7-B3 variant S298_08L/GpL16-k0 (antibody, human IgG1, kappa)
heavy: not shown
light: B1 light
notes: as for B1
B59: GpH7-B3 variant Q295_02A/GpL16-k0 (antibody, human IgG1, kappa)
heavy: not shown
light: B1 light
notes: as for B1

Assays:
FcγRIa [1] = biological target: T1, FcγRIa (human, UniProt P12314 16-292); assay: SPR (Biacore), captured antibody, FcγRIa analyte; relative to HoCon Ab GpH7-B3/GpL16-k0 = 100
T1 construct: extracellular domain; soluble extracellular domain with C-terminal His tag, expressed in FreeStyle293 cells; also called FcgRI; FcgRIa

FcγRIa [2] = biological target: T1, FcγRIa; assay: SPR (Biacore), captured antibody, FcγRIa analyte; relative to HeCon Ab GpH7-A5/GpH7-B3/GpL16-k0 = 100

T1 sequence (P12314 16-292): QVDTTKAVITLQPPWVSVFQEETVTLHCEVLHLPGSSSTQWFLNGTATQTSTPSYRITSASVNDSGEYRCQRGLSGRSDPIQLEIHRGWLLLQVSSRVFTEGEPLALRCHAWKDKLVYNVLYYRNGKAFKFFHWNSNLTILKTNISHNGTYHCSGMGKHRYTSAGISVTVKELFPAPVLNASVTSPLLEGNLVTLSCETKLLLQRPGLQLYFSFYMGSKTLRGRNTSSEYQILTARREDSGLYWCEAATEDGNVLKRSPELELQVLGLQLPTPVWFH

| Binder | Ho/Con_1a (FcγRIa [1]) | He/Con_1a (FcγRIa [2]) |
| --- | --- | --- |
| B1 | 100 % of control | – |
| B2 | – | 104 % of control |
| B3 | 101 % of control | – |
| B4 | 105 % of control | – |
| B5 | 104 % of control | – |
| B6 | – | 105 % of control |
| B7 | – | 103 % of control |
| B8 | – | 107 % of control |
| B9 | 112 % of control | – |
| B10 | 106 % of control | – |
| B11 | 105 % of control | – |
| B12 | 101 % of control | – |
| B13 | 101 % of control | – |
| B14 | 100 % of control | – |
| B15 | 108 % of control | – |
| B16 | 102 % of control | – |
| B17 | 102 % of control | – |
| B18 | 111 % of control | – |
| B19 | 101 % of control | – |
| B20 | 101 % of control | – |

| Binder | Ho/Con_1a (FcγRIa [1]) | He/Con_1a (FcγRIa [2]) |
| --- | --- | --- |
| B21 | 104 % of control | – |
| B22 | 103 % of control | – |
| B23 | 102 % of control | – |
| B24 | 103 % of control | – |
| B25 | 100 % of control | – |
| B26 | 103 % of control | – |
| B27 | 103 % of control | – |
| B28 | 102 % of control | – |
| B29 | 102 % of control | – |
| B30 | 102 % of control | – |
| B31 | 107 % of control | – |
| B32 | 103 % of control | – |
| B33 | 106 % of control | – |
| B34 | 103 % of control | – |
| B35 | 107 % of control | – |
| B36 | 112 % of control | – |
| B37 | 101 % of control | – |
| B38 | 106 % of control | – |
| B39 | 101 % of control | – |
| B40 | 102 % of control | – |

| Binder | Ho/Con_1a (FcγRIa [1]) | He/Con_1a (FcγRIa [2]) |
| --- | --- | --- |
| B41 | 104 % of control | – |
| B42 | 101 % of control | – |
| B43 | – | 109 % of control |
| B44 | 104 % of control | – |
| B45 | 103 % of control | – |
| B46 | 102 % of control | – |
| B47 | 106 % of control | – |
| B48 | 101 % of control | – |
| B49 | 104 % of control | – |
| B50 | 104 % of control | – |
| B51 | 105 % of control | – |
| B52 | 107 % of control | – |
| B53 | 103 % of control | – |
| B54 | 101 % of control | – |
| B55 | 101 % of control | – |
| B56 | 102 % of control | – |
| B57 | 101 % of control | – |
| B58 | 104 % of control | – |
| B59 | 104 % of control | – |
